# Earlier results in US6303637A, “Heterocyclic potassium channel inhibitors” (Merck & Co., Inc., priority 1999, dated 2001).
# Biological target: T1, Kv 1.3 channels (Homo sapiens, UniProt P22001)
# T1 construct: expressed in transfected cells; host or cells: CHO cells
# Details: margatoxin used at saturating concentration to establish the efflux window; read-out: IC50 (blocker of Kv 1.3 channels)
# T1 sequence (P22001 whole entry): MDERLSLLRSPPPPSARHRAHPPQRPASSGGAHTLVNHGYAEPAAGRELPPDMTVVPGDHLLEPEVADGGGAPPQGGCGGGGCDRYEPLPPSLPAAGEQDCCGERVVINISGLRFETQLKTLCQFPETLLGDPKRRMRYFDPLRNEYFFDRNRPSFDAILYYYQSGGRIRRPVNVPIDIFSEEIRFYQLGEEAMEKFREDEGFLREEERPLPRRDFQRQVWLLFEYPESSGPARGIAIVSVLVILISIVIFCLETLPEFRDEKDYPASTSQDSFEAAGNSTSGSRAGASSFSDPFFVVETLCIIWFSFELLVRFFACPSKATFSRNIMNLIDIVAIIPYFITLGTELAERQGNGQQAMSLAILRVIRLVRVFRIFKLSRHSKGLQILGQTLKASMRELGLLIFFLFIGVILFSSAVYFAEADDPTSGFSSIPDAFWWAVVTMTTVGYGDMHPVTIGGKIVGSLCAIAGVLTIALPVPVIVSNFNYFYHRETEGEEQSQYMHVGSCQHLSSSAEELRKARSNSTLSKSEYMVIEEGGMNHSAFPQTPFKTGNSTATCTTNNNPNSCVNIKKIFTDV
substance,measurement,value
"margatoxin (TIINVKCTSPKQCLPPCKAQFGQSAGAKCMNGKCKCYPH; UniProt P40755 1-39, looked up)",IC50,0.1 nM
